According to article PMC5928908 (Theranostics, 2018):

Molecular target: full-length GST-PRMT5 (UniProt O14744 1-637)
Test: pull-down

Sequence of full-length GST-PRMT5 (O14744 whole entry): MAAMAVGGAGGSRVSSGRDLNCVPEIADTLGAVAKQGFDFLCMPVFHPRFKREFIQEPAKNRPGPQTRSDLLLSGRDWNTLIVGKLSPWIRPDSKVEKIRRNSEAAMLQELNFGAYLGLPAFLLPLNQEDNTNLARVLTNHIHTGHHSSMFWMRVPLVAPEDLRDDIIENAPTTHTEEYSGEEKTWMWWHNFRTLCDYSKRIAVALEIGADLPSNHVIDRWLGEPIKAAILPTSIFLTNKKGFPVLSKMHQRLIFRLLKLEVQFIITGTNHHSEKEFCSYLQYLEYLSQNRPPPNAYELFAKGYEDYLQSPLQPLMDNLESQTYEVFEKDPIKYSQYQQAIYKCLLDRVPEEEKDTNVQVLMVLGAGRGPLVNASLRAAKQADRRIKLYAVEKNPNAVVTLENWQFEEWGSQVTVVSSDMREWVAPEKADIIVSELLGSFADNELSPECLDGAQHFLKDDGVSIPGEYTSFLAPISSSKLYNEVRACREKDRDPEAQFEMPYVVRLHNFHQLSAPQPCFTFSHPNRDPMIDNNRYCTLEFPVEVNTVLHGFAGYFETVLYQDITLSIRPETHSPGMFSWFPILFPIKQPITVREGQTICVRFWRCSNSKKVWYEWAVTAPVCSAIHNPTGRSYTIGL

binding result: binds
B1: full-length His-CAPG (natural protein)
chain: MYTAIPQSGSPFPGSVQDPGLHVWRVEKLKPVPVAQENQGVFFSGDSYLVLHNGPEEVSHLHLWIGQQSSRDEQGACAVLAVHLNTLLGERPVQHREVQGNESDLFMSYFPRGLKYQEGGVESAFHKTSTGAPAAIKKLYQVKGKKNIRATERALNWDSFNTGDCFILDLGQNIFAWCGGKSNILERNKARDLALAIRDSERQGKAQVEIVTDGEEPAEMIQVLGPKPALKEGNPEEDLTADKANAQAAALYKVSDATGQMNLTKVADSSPFALELLISDDCFVLDNGLCGKIYIWKGRKANEKERQAALQVAEGFISRMQYAPNTQVEILPQGHESPIFKQFFKDWK
